The series can be described thus: yeast display, Sf9 membrane polyspecificity reagent, FACS + sequencing; frameworks hold sequencing errors. The gist of the method:
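A nanobody's polyreactivity label depends on the gate it was sorted from. Yeast display cells were stained with 10% biotinylated, detergent-solubilized Sf9 membrane reagent for 1 hour at 4 °C, enriched on streptavidin microbeads and sorted by FACS. The low and high (top ~1%) gates were set on anti-HA fluorescence for expression and streptavidin fluorescence for reagent binding.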
For “QVQLVESGGGLVQAGGSLRLSCAASGLIFYDNMGWYGPAPGKERELVAAISSSGGSTSYADSVKGRFTISRDNAKNTVYLQMNSLKPEDTAVYYCAADSYPAYLGFVCFDYWGQGTQVTVSS”, the “polyreactivity (PSR sort gate)” value is recorded as “low polyreactivity”. Take “QVQLVESGGGLVQAGGSLRLSCAASGLIFYDNMGWYRQAPGKERELVAAISSSGGSTSYADSVKGRFTISRDNAKNTVYLQMNSLKPEDTAVYYCAADVELWVFRGQQYDYWGQGTQVTVSS”: the “polyreactivity (PSR sort gate)” value is on record as “low polyreactivity”. With “QVQLVESGGGLVQAGGSLRLSCAASGLIFYDNMVWYRQGPGTETELVAAISSSGGSTSYADSVKGRFTISRDNAKNTVYLQMNILKPEDTAVYYCAADSYPAYLGFVCFDYWGQGTEVTVSS” the entry was “low polyreactivity”; with “QVQLVESGGGLVQAGGSLRLSCAASGLIFYDYAMGWYRPAPGKERELVAAITSSDSTYYADSVKGRFTISRDNAQNTVYLQMNSLKPEDTAVYYCAAKPYYFYGMDYWGQGTQVTVSS”, “high polyreactivity”. With “QVQLVESGGGLVQAGGSLRLSCAASGLIFYENAMGWYRQAPGKERELVAAINYDGDSTYYADSVKGRFTISRDNAKNTFYLQLNSLKPEDTAVYYCAADGGWVLFWMDYWGQGTQVTVSS” the entry was “low polyreactivity”; with “QVQLVESGGGLVQAGGSLRLSCAASGLIFYGNAMGWSRQAPGKERELVAAISRRGGRTYYADSVKGRFTISRDNAKNTVYLQMNSLKPEDTAVYYCDADVIYSGDYWGQGTQVTVSS”, “high polyreactivity”. With “QVQLVESGGGLVQAGGSLRLSCAASGLIFYGNAMGWYRQAPVKERELVAAISRRGGRTYYADSVKGRFTISRDNAKNTVYLQMNSLKPEDTAVYYCAAGVPKNGQAGYDYWGQGTQVTVSS” the entry was “high polyreactivity”; with “QVQLVESGGGLVQAGGSLRLSCAASGLIFYGNAMGWYRQAPWKERELVAAITGGGGNTYYADSVKGRFTISRDNAKITFFLQMISLKPEDTAVYYCASASSTAYVRYYYWGQGTQVTVSS”, “high polyreactivity”; with “QVQLVESGGGLVQAGGSLRLSCAASGLIFYINAMGWYRQAPGKERELVAAISSGGSTNYADSVKGRFTISRDNAKNTVYLQMNSLKPEDTAVYYCARDAYLPRIADGDGRYELVDYWGQGTQVTVSS”, “low polyreactivity”. Take “QVQLVESGGGLVQAGGSLRLSCAASGLIFYIYMGWYRQAPGKERELVAVISSSGNSTYYADSVKGRFTISRDNEKNTVYLQMNSLKPEDTAVYYCNASAYYPPSSSRYDYWGQGTQVTVSS”: the “polyreactivity (PSR sort gate)” value is on record as “low polyreactivity”. With “QVQLVESGGGLVQAGGSLRLSCAASGLIFYKYAMGWYRQAPGKERELVASISTGGGSTYYADSVKGRFTISRDNAKNTVYLQMNSLKPEDTAVYYCAARWWRRFRGSHSLYDYWGQGTQVTVSS” the entry was “high polyreactivity”; with “QVQLVESGGGLVQAGGSLRLSCAASGLIFYRNAMGWYRQAPGKERELVAAISKNGGNTYYADSVKGRFTISRDNAKNTVYLQMYSLKPEDTAVYYCAARELYGPFGYWGQGTQVTVSS”, “high polyreactivity”. As to “QVQLVESGGGLVQAGGSLRLSCAASGLIFYRNAMGWYRQAPGKERELVAGISASGGRTYYADSVNGRFTISRDNAKNTVYLQMNSLKPEDTAVYYCNRPSIYRYPQRLLGNFWGQGTQVTVSS”, the “polyreactivity (PSR sort gate)” value was “high polyreactivity”.

Regarding “QVQLVESGGGLVQAGGSLRLSCAASGLIFYRYAMGWYRQAPGKERELVAAISRSGSSTYYADSVKGRFTISRDNAKNTFYLQINSLKPEDTAVYYCNAGYGWIWDDRGYWGQGTQVTVSS”, the “polyreactivity (PSR sort gate)” value is on record as “high polyreactivity”. In the case of “QVQLVESGGGLVQAGGSLRLSCAASGLIFYRYAMGWYRQAPGKERELVATISSGGSTNYADSVKGRFTISRDNAKNTVYLQMNSLKPEDTAVYYCAASRWLYYYLFEYWGQGTQGTVSS” it was “high polyreactivity”; in that of “QVQLVESGGGLVQAGGSLRLSCAASGLIFYRYAMGWYRQAPRKERELVARISYRTTSTYYADSVKGRFTISRDNAKNNVYLQMNSLKPEDTAVYYCAASRFAYRVRYLFEYWGHGTQVTVSS”, “high polyreactivity”; in that of “QVQLVESGGGLVQAGGSLRLSCAASGLIFYRYTMGWYRQAPGKERELVAAIDDSDTSTYYADSVKGRFTISRDNAKNTVYLQMNSLKPEDTAVYYCAAVPLAPYAVRSRLDFDYWGQGTQVTVSS”, “low polyreactivity”. In the case of “QVQLVESGGGLVQAGGSLRLSCAASGLIFYRYTMGWYRQAPGKERELVAAITRSGSTYYADSVKGRFTISRDNAKNTVYLQMNSLKPEDTAVYYCAADVTLYYRGRRYYYWGQGTQVTVSS” it was “high polyreactivity”; in that of “QVQLVESGGGLVQAGGSLRLSCAASGLIFYSYAMGWYRQAPGKERELVAAINGGGGSTYYADSVKGRFTISRDNAKNTVYLQMNSLKPEDTAVYYCAAVRSIVDWGLMYYWGQGTQVTVSS”, “high polyreactivity”; in that of “QVQLVESGGGLVQAGGSLRLSCAASGLIFYVYAMGWYRQAPGKERELVAAIRGSGARTYYADSVKGRFTISRDNAKNTVYLQMNSLKPEDTAVYYCNARQRYRPSYDYWGQGTQVTVSS”, “high polyreactivity”. Consider “QVQLVESGGGLVQAGGSLRLSCAASGLIFYWYTMGWYRQAPGKEREFVAAITWGGGGTYYADSVKGRFTISRDKAKNTVYLQMNSLKPEDTAVYYCAAEEQVVKAHGDYWGQGTQVTVSS”, for which the “polyreactivity (PSR sort gate)” value is recorded as “low polyreactivity”.

For the sequence “QVQLVESGGGLVQAGGSLRLSCAASGLIFYYYAIGWYRQAPGKERELVAAITTGGGTYYADSVKGRFSISRVNAKNTVYLQMNSLKPEDTAVYYCAVYYRSYWGYEYWGQGTQVTVSS”, the “polyreactivity (PSR sort gate)” value was “high polyreactivity”. With “QVQLVESGGGLVQAGGSLRLSCAASGLIFYYYAMGWYRPAPGKERELVAAISRRGGSTYYADSVKGRFTISRDNAKNTVYLQMNSLKPEDTAVYYCNKYRSYWSGPSYWREYDYWGQGTQVTVSS” the entry was “high polyreactivity”; with “QVQLVESGGGLVQAGGSLRLSCAASGLIFYYYAMGWYRQAPGKERELVAAITWTAGSTSYADSVKGRFTISRDNAKNTVYLQMNSLKPEDTAVYYCAADYRHDTFSNEYDYWGQGTQVTVSS”, “low polyreactivity”. As for “QVQLVESGGGLVQAGGSLRLSCAASGLIIRYYDMGWYRQAPGKEREFVAAITWNGGSTYADSVKGRFTISRDNAKNTVYLQMNSLKPEDTAVYYCAADLSYWDDFDYWGHGTQVTVSS”, the “polyreactivity (PSR sort gate)” value was “low polyreactivity”.

In the case of “QVQLVESGGGLVQAGGSLRLSCAASGLIIYRYAMGWYRQAPGKERELVAAISSTGGRTYYADSVKGRFTISRDNAKNTVYLQMNSLKPEDTAVYYCNADYGWKYVQYYYWGQGTQVTVSS”, the “polyreactivity (PSR sort gate)” value is listed as “high polyreactivity”.

As for “QVQLVESGGGLVQAGGSLRLSCAASGLIIYRYGMGWYRQAPGKERELVAAISYSGSSSYYADSVKGRFTISRDNAKNTVYLQMNSLKPEDTAVYYCAARHGPRSEAMYYWGQGTQVTVSS”, the “polyreactivity (PSR sort gate)” value is recorded as “high polyreactivity”.

For “QVQLVESGGGLVQAGGSLRLSCAASGLIIYYYAMGWYRQAPGKERELVAAISINGGSTYYADSVKGRFTISRDNAKNTVYLQMNSLIPEDTAVYYCAAFRRRMEYWGQGTQVTVSS”, the “polyreactivity (PSR sort gate)” value is given as “high polyreactivity”. With “QVQLVESGGGLVQAGGSLRLSCAASGLILDGNVMGWYRQAPGKERELVAAINTSGGSTYYADSVKGRFTISRDNAKNTVYLQMNSLKPEDTAVYYCAARYPSDYDYWGQGTQVTVSS” the entry was “low polyreactivity”; with “QVQLVESGGGLVQAGGSLRLSCAASGLILRKYAMGWYRQAPGKEREFVAAITQTGSRTYYADSVKGRFTISRDNAKNTVYLQMNSLKPEDTAVYYCNAVNYRSSRDSGYWGQGTQVTVSS”, “high polyreactivity”.

The values above are taken from the nanobody polyreactivity screen of Harvey et al. (2022).
